This assay has as its target HIV gp120 monomer of strain CN97001 (HIV-1, strain CN97001 (paper: clade C); …, UniProt G4XFJ5, strain). Description: BLI.

B1: recombinant bnAb 10-1074 (from pTT3 10-1074 NHP-IgG) (antibody, V domains shown)
VH: QVQLQESGPGLVKPSETLSVTCSVSGDSMNNYYWTWIRQSPGKGLEWIGYISDRESATYNPSLNSRVVISRDTSKNQLSLKLNSVTPADTAVYYCATARRGQRIYGVVSFGEFFYYYSMDVWGKGTTVTVSS
VL: LSVALGETARISCGRQALGSRAVQWYQHRPGQAPILLIYNNQDRPSGIPERFSGTPDINFGTRATLTISGVEAGDEADYYCHMWDSRSGFSWSFGGATRLTVL
On to B1, for which the binding result is “binds”.

The record behind these values is article doi:10.1101/2025.05.02.651933 (bioRxiv, 2025).
